According to patent US11274129B2, “Methods for protein tyrosine phosphorylation profiling with variant SH2 domains” (priority 2016, dated 2022):

How the values were obtained:
[1] = target: EGFR-pTyr^978 peptide PQRpYLVIQGD; details: peptide EGFR-pTyr^978 PQRpYLVIQGD; read-out: equilibrium dissociation constant (Kd); cited from earlier work
[2] = target: EGFR-pTyr^1110 peptide NPVpYHNQPLN; details: peptide EGFR-pTyr^1110 NPVpYHNQPLN; read-out: equilibrium dissociation constant (Kd); cited from earlier work
[3] = target: MidT-pTyr^324 peptide EPQpYEEIPIYL; details: peptide MidT-pTyr^324 EPQpYEEIPIYL; read-out: equilibrium dissociation constant (Kd); cited from earlier work
[4] = system: mixture of 54 different pTyr-including peptides derived from 54 TK activation loops; test: Capture of pTyr-including peptides from a mixture of TK activation loop peptides, scheduled PRM; type: binding
Procedure: Equal molar amounts (10 nmole) of the wild-type (wt) human Src SH2 domain and the DM and TrM human Src SH2 Superbinders (SEQ ID NO: 14 and 5, respectively) expressed with His6 and GST tags were used to capture pTyr-including peptides from a mixture of 54 different pTyr-including peptides (10 pmole each) derived from 54 TK activation loops. The isolated peptides were identified by PRM and quantified based on the corresponding MS peak area. 1.8% of the eluted peptides were injected into a Q-Exactive (Thermo Fisher) preceded with a nano-LC system.
Shown are the amounts of pTyr-including peptides captured, based on the corresponding peak area of PRM signal, by each of the parent human Src SH2 domain and the DM and TrM human Src SH2 Superbinders.

[5] = target: ShcA-pTyr^317 peptide DPSpYVNVQNL; details: peptide ShcA-pTyr^317 DPSpYVNVQNL; read-out: equilibrium dissociation constant (Kd); cited from earlier work
[6] = target: ShcA-pTyr^239 peptide DHQpYYNDFPG; details: peptide ShcA-pTyr^239 DHQpYYNDFPG; read-out: equilibrium dissociation constant (Kd); cited from earlier work
[7] = target: VEGFR1-pTyr^1213 peptide DVRpYVNAAKF; details: peptide VEGFR1-pTyr^1213 DVRpYVNAAKF; read-out: equilibrium dissociation constant (Kd); cited from earlier work
Designed peptide GGpYGG = details: read-out: equilibrium dissociation constant (Kd); cited from earlier work
[8] = target: RSKL-pTyr^423 peptide YQHpYDLDLKD; details: peptide RSKL-pTyr^423 YQHpYDLDLKD; read-out: equilibrium dissociation constant (Kd); cited from earlier work

B1: Triple mutant: TrM human Src SH2 domain variant with Thr183Val, Cys188Ala and Lys206Leu; His6/GST-tagged form SEQ ID NO: 11 (protein)
chain: DSIQAEEWYFGKITRRESERLLLNAENPRGTFLVRESETVKGAYALSVSDFDNAKGLNVKHYLIRKLDSGGFYITSRTQFNSLQQLVAYYSKHADGLCHRLTTVCPTSK
modifications: SH2 protein domain; TrM human Src SH2 domain
[1]
  Kd: 7.7 nM
[2]
  Kd: 76 nM
[3]
  Kd: 3.8 nM
[4]; 10 nmole SH2 domain, 10 pmole each peptide
  number of the 54 pTyr-including peptides captured / detected by PRM: 54
[4]; BLK (pTyr389) IIDSEpYTAQEGAK, fragment ion b2
  PRM signal peak area: 156,244
[4]; BMX (pTyr566) YVLDDQpYVSSVGTK, fragment ion b2
  PRM signal peak area: 151,470
[4]; BTK (pTyr551) YVLDDEpYTSSVGSK, fragment ion b2
  PRM signal peak area: 1,311,693
[4]; DDR1 (pTyr796/797) NLYAGDpYpYR, fragment ion b2
  PRM signal peak area: 337,871
[4]; DDR2 (pTyr740/741) NLYSGDpYpYR, fragment ion y6
  PRM signal peak area: 184,684
[4]; EPHA1 (pTyr781) LLDDFDGTpYETQGGK, fragment ion y9
  PRM signal peak area: 188,365
[4]; EPHA2 (pTyr772) VLEDDPEATpYTTSGGK, fragment ion y11
  PRM signal peak area: 347,030
[4]; EPHA3 (pTyr779) VLEDDPEAApYTTR, fragment ion y8
  PRM signal peak area: 394,218
[4]; EPHA6 (pTyr830) VLEDDPEAApYTTTGGK, fragment ion b2
  PRM signal peak area: 287,653
[4]; EPHA8 (pTyr793) VLEDDPDAApYTTTGGK, fragment ion y11
  PRM signal peak area: 585,234
[4]; EPHB1 (pTyr778) YLQDDTSDPTpYTSSLGGK, fragment ion y10
  PRM signal peak area: 205,974
[4]; EPHB2 (pTyr780) FLEDDTSDPTpYTSALGGK, fragment ion Y3
  PRM signal peak area: 215,302
[4]; EPHB3 (pTyr792) FLEDDPSDPTpYTSSLGGK, fragment ion y10
  PRM signal peak area: 260,454
[4]; EPHB4 (pTyr774) FLEENSSDPTpYTSSLGGK, fragment ion y10
  PRM signal peak area: 134,156
[4]; ERBB2 (pTyr877) LLDIDETEpYHADGGK, fragment ion b3
  PRM signal peak area: 42,655
[4]; ERBB3 (pTyr866) QLLpYSEAK, fragment ion y2
  PRM signal peak area: 164,128
[4]; FER (pTyr714) QEDGGVpYSSSGLK, fragment ion y7
  PRM signal peak area: 27,417
[4]; FES (pTyr713) EEADGVpYAASGGLR, fragment ion y8
  PRM signal peak area: 25,101
[4]; FGFR1 (pTyr653/654) DIHHIDpYpYK, fragment ion b6
  PRM signal peak area: 51,243
[4]; FGFR2 (pTyr656/657) DINNIDpYpYK, fragment ion y4
  PRM signal peak area: 87,143
[4]; FGFR3 (pTyr647/648) DVHNLDpYpYK, fragment ion b3
  PRM signal peak area: 258,435
[4]; FGFR4 (pTyr642/643) GVHHIDpYpYK, fragment ion b3
  PRM signal peak area: 36,105
[4]; FRK (pTyr387) VDNEDIpYESR, fragment ion y6
  PRM signal peak area: 290,546
[4]; GSK3 (pTyr279/216) GEPNVSpYICSR, fragment ion y6
  PRM signal peak area: 48,337
[4]; HCK (pTyr411) VIEDNEpYTAR, fragment ion b2
  PRM signal peak area: 383,521
[4]; INSRR (pTyr1145/1146) DVYETDpYpYR, fragment ion y5
  PRM signal peak area: 20,796
[4]; ITK (pTyr512) FVLDDQpYTSSTGTK, fragment ion y11
  PRM signal peak area: 403,125
[4]; JAK1 (pTyr1034/1035) EpYpYTVK, fragment ion y2
  PRM signal peak area: 109,611
[4]; JAK2 (pTyr221) IQDpYHILTR, fragment ion Y3
  PRM signal peak area: 85,513
[4]; JAK3 (pTyr980/981) DpYpYVVR, fragment ion y2
  PRM signal peak area: 19,712
[4]; KIT (pTyr823) NDSNpYVVK, fragment ion b2
  PRM signal peak area: 234,665
[4]; LMTK2 (pTyr295) EDpYIETDDK, fragment ion b2
  PRM signal peak area: 20,896
[4]; LMTK3 (pTyr296/297) EDpYpYLTPER, fragment ion y3
  PRM signal peak area: 375,974
[4]; MERTK (pTyr753/754) IYSGDpYpYR, fragment ion b2
  PRM signal peak area: 26,483
[4]; MET (pTyr1234/1235) EpYpYSVHNK, fragment ion y2
  PRM signal peak area: 111,218
[4]; MUSK (pTyr755/756) NIYSADpYpYK, fragment ion y2
  PRM signal peak area: 178,086
[4]; NTRK1 (pTyr680/681) DIYSTDpYpYR, fragment ion b2
  PRM signal peak area: 103,368
[4]; NTRK2 (pTyr706/707) DVYSTDpYpYR, fragment ion y4
  PRM signal peak area: 114,762
[4]; PGFRB (pTyr857) DSNpYISK, fragment ion y2
  PRM signal peak area: 398,271
[4]; PTK7 (pTyr960/961) DVYNSEpYpYHFR, fragment ion b2
  PRM signal peak area: 8,863
[4]; RET (pTyr905) DVYEEDSpYVK, fragment ion b2
  PRM signal peak area: 882,529
[4]; RON (pTyr1238/1239) EpYpYSVQQHR, fragment ion y4
  PRM signal peak area: 44,290
[4]; ROR1 (pTyr645/646) EIYSADpYpYR, fragment ion y6
  PRM signal peak area: 177,244
[4]; ROR2 (pTyr645/646) EVYAADpYpYK, fragment ion y5
  PRM signal peak area: 334,295
[4]; SRC (pTyr419) LIEDNEpYTAR, fragment ion b2
  PRM signal peak area: 99,515
[4]; SRMS (pTyr380) DDIpYSPSSSSK, fragment ion y8
  PRM signal peak area: 478,598
[4]; TEC (pTyr519) YVLDDQpYTSSSGAK, fragment ion b2
  PRM signal peak area: 781,110
[4]; TIE1 (pTyr1007) GEEVpYVK, fragment ion b2
  PRM signal peak area: 409,242
[4]; TIE2 (pTyr992) GQEVpYVK, fragment ion b2
  PRM signal peak area: 209,701
[4]; TXK (pTyr420) YVLDDEpYVSSFGAK, fragment ion b2
  PRM signal peak area: 271,650
[4]; TYK2 (pTyr1054/1055) AVPEGHEpYpYR, fragment ion y6
  PRM signal peak area: 53,473
[4]; VGFR1 (pTyr1053) NPDpYVR, fragment ion y3
  PRM signal peak area: 158,244
[4]; VGFR2 (pTyr1059) DPDpYVR, fragment ion Y3
  PRM signal peak area: 196,659
[5]
  Kd: 7.5 nM
[6]
  Kd: 3.8 nM
[7]
  Kd: 23 nM
Designed peptide GGpYGG
  Kd: 510 nM
[8]
  Kd: 13 nM
